Experimental data taken from patent US20200024330A1.

Tests used:
Assay in all cases: cell-based or functional assay
[1] = target: HIV-1 IAVI-C18 envelope protein (Env) on pseudovirus (HIV-1)
[2] = target: HIV-1 MGRM-C-002 Env (HIV-1)
[3] = target: HIV-1 MGRM-C-001 Env (HIV-1)
[4] = target: HIV-1 MGRM-A-013 envelope glycoprotein (Env) (HIV-1)
[5] = target: HIV-1 98CN009 envelope glycoprotein (Env) on pseudovirus (HIV-1)
[6] = target: HIV-1 92UG031 envelope glycoprotein (Env) (HIV-1)
[7] = target: HIV-1 Env of isolate MGRM-D-020 (clade D) (HIV-1)
[8] = target: HIV-1 Env of pseudovirus CAAN.A2 (Acute), clade B (HIV-1)
[9] = target: HIV-1 MGRM-A-003 envelope glycoprotein (Env) (HIV-1)
[10] = target: HIV-1 MGRM-C-007 Env (HIV-1)
[11] = target: HIV-1 92UG037 envelope glycoprotein (Env) (HIV-1)
[12] = target: HIV-1 Env of isolate MGRM-D-011 (clade D) (HIV-1)
[13] = target: HIV-1 93IN905 envelope glycoprotein (Env) on pseudovirus (HIV-1)
[14] = target: HIV-1 Env of pseudovirus VLGCB3, clade B (HIV-1)
[15] = target: HIV-1 Env of pseudovirus TRJ0.58 (Acute), clade B (HIV-1)
[16] = target: HIV-1 Env of pseudovirus 6535.3 (Acute), clade B (HIV-1)
[17] = target: HIV-1 MGRM-F1-021 Env (pseudovirus) (HIV-1)
[18] = target: HIV-1 MGRM-C-010 Env (HIV-1)
[19] = target: HIV-1 Env of isolate SF162 (HIV-1) (UniProt P19549)
[20] = target: HIV-1 MGRM-A-014 envelope glycoprotein (Env) (HIV-1)
[21] = target: HIV-1 MGRM-F1-012 Env (pseudovirus) (HIV-1)

Chain of HIV-1 Env of isolate SF162 (HIV-1) (P19549 32-852 limits assumed): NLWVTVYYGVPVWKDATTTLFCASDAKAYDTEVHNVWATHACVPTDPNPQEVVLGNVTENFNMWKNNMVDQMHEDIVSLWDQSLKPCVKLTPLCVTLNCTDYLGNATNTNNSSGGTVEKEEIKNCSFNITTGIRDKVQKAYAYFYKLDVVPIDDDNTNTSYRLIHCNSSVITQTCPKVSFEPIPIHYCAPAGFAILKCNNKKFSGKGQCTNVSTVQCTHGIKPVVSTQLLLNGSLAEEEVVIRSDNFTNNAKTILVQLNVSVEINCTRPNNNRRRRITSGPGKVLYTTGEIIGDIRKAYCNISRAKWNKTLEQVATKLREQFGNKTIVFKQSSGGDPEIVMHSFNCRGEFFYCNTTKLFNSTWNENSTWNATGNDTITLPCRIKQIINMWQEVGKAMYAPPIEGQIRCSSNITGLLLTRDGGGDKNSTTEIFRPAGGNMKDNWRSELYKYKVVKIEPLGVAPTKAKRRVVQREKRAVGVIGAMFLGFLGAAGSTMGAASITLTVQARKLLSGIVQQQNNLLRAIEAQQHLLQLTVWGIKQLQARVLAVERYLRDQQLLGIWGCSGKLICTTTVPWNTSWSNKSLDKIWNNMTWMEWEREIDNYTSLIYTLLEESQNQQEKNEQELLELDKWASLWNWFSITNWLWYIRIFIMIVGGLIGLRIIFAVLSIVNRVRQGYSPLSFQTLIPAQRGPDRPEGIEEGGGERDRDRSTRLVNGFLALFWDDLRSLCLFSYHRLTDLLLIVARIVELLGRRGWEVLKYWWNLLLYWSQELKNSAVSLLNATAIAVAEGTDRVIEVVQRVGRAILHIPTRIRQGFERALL
Chain of 1443_C16 (PG16) (TCN-116) (antibody) (VH): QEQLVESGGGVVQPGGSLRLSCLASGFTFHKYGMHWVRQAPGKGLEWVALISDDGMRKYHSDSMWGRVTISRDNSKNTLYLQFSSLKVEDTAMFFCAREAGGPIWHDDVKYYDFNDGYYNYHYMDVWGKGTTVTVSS
Chain of 1443_C16 (PG16) (TCN-116) (antibody) (VL): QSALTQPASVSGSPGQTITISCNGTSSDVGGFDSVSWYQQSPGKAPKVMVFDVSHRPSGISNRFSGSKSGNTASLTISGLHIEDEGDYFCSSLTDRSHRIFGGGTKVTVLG

Row | Substance | neutralization IC50 [1] [µg/mL] | IC50 [2] [µg/mL] | IC50 [3] [µg/mL] | IC50 (µg/ml), pseudovirus neutralization [4] [µg/mL] | IC50 (µg/ml), pseudovirus neutralization [5] [µg/mL] | IC50 (µg/ml), pseudovirus neutralization [6] [µg/mL] | IC50 (µg/ml), pseudovirus neutralization [7] [µg/mL] | IC50 (µg/ml), pseudovirus neutralization [8] [µg/mL] | IC50 (µg/ml), pseudovirus neutralization [9] [µg/mL] | IC50 [10] [µg/mL] | IC50 (µg/ml), pseudovirus neutralization [11] [µg/mL] | IC50 (µg/ml), pseudovirus neutralization [12] [µg/mL] | IC90 (pseudovirus neutralization) [13] [µg/mL] | IC50 (µg/ml), pseudovirus neutralization [14] [µg/mL] | IC50 (µg/ml), pseudovirus neutralization [15] [µg/mL] | IC50 (µg/ml), pseudovirus neutralization [16] [µg/mL] | IC50 (µg/ml), pseudovirus neutralization [17] [µg/mL] | IC50 [18] [µg/mL] | IC50 (µg/ml), pseudovirus neutralization [19] [µg/mL] | IC50 (µg/ml), pseudovirus neutralization [20] [µg/mL] | other results
1 | 2F5 (antibody) | > 50 | 44.7 | > 50 | 0.66 | > 50 | 3.81 | > 50 | 23.1 | 7.37 | > 50 | 3.24 | > 50 | > 50 | > 50 | > 50 | 2.76 | 1.37 | > 50 | 2.52 | 1.43 | IC50 (µg/ml), pseudovirus neutralization [21]: > 50 µg/mL
2 | 2G12 (antibody) | > 50 | > 50 | 2.93 | > 50 | > 50 | > 50 | > 50 | > 50 | > 50 | > 50 | 45.2 | 1.5 | > 50 | 7.9 | > 50 | 3.85 | 14.1 | > 50 | 1.67 | > 50 | IC50 (µg/ml), pseudovirus neutralization [21]: 1.81 µg/mL
3 | 4E10 (antibody) | > 50 | 18.2 | 5.66 | 1.46 | 2.46 | 4.94 | > 50 | 17.9 | 5.94 | 5.84 | 8.84 | 0.91 | 12.8 | 5.76 | 11.9 | 1.23 | 1.87 | 11 | 4.28 | 1.74 | IC50 (µg/ml), pseudovirus neutralization [21]: 0.37 µg/mL
4 | 1443_C16 (PG16) (TCN-116) (antibody) | 0.0067 | 28.3 | 16.8 | 0.09 | 5.76 | 0.43 | 16.3 | 8.83 | 2.65 | 0.05 | 0.01 | 0.01 | > 50 | 0.4 | 1.16 | 36.9 | > 50 | > 50 | > 50 | 20.3 | IC50 (µg/ml), pseudovirus neutralization [21]: 0.003 µg/mL
